The data set relates to Saccharomyces cerevisiae. Put plainly: transcriptional activation domain activity (GFP:mCherry ratio, weighted mean of sorted bins, harmonized to initial dataset scale) (arbitrary fluorescence ratio units); higher = stronger transcriptional activation. The settings on record: beta-estradiol 1 µM; induction time 4 h. The method, boiled down: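 The activation activity of each tile is the read-weighted mean of bin median fluorescence, averaged across its barcodes and mapped linearly onto the scale of the initial dataset. Tiles were fused to an estradiol-inducible synthetic transcription factor, barcoded, and integrated at URA3 in yeast diploids carrying a GFP reporter. Induction used 1 uM beta-estradiol in SC for 4 hours at 30 °C, after which cells were sorted into 8 GFP:mCherry bins, and any tile with fewer than 50 reads was dropped.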

For “MALPVIFLFFLHVNILLLCRRFLLVFFLLLVFFLLLVFFFLLLVFFLLLVFLL”, the “transcriptional activation domain activity” value is 66200.
As to “MALYLTFRHCPELFYWVKLRRVSRKIHTFISSIFNIFLYVLMLMNGCIIHHYI”, the “transcriptional activation domain activity” value came out at 57200.
Under “MAMGLMCKACLLTPQHFLPLLWPSYPRPFFFFFFFYYSYCCSCCDCISIFGLN” stands 43400; under “MAMGYMRFCALAISILLFREGKELTQRGSCGCLIYVCVRLEVGYYRLVFLIGY”, 54700; under “MAMTPVRGEGNDGYRTSDGEMESGGTRAQGKVIQRSRWVASSHIVAPAEVEKP”, 27500.
With “MAMVRCMDLYNLDGNGMGKFYTWQFFPFFRFWFLPVCMLLLPFVLVSCLAFFI” the figure was 58400.
As for “MANHQLYTDWLYLWWIAYTNKMAGHVYIILKESLKNIPLIGWGAQFYNFIFLA”, the “transcriptional activation domain activity” value turned out to be 54800.
Take “MANVRFFVGLQRLFPFLAFHHLLMLCHIIVIILLSILLAGCSSYSSMINVYIL”: the “transcriptional activation domain activity” value came to 70400.
For the sequence “MAPAPAPVAAPPAPETREAPPASPRGRSRSRSRSPAFRRPSPPAPRRPVGAPA”, the “transcriptional activation domain activity” value turned out to be 29100.
Take “MAPCIPVMYLSVSSTSFLFLSFFILGWWILFSFTIFPATNSFLCFWAPFFFSH”: the “transcriptional activation domain activity” value was found to be 46100.
With “MAPETADKPSRRRHIKSRSGCKNCKKRKVKCGEERPSCRNCSRRGSLCDLADE” the figure was 20400.
For “MAPETKNKKRKSGVTASSPSTKKLKKAEAPVAEEAPAPVKSTKKSKAAAPKAE”, the “transcriptional activation domain activity” value amounted to 43300.
For the sequence “MAPFSPFVYFFLFLVHNSWLFCFLLVCFPFFSILVFLSFCPFLSPFTSRFSFL”, the “transcriptional activation domain activity” value is 56600.
Under “MAPKAPEASPPKRGRGRPRKAESEKKTKAYEPTGRPRGRPKGSGGVKKSVAAT” stands 19600; under “MAPPFLGHFFGLYPSIMIRFPCLLLYRFATVYLGVLLFPFSILFFILFIFYFF”, 34200.
As for “MAPPTSKTTPDSPDSGAPRKRRRTALACEECRDRKRKCDGVKPVCGACKTRPA”, the “transcriptional activation domain activity” value turned out to be 21900.
Under “MAPQRRPAAEVISSDSDDEAARPTGSAATRSAGGGGAGGGRRIVLTGRGNNSS” stands 20400; under “MAPSASAGGSGAAKPKKTRAKHACRECNSRRVKCNVTERQPCTNCAASGATCE”, 11700; under “MAPTKAVAPAPAAAADGTVKRGRGRPPKDPSERKPKPEPSGRPRGRPKGSGGV”, 33400.
For “MAPTTPTNSNGETPVKRGRGRPPKPEHEKKLKPAPSGRGRGRPKGSGVKKTGG”, the “transcriptional activation domain activity” value stood at 39100.
“MAPVTQTEWPRQRALHSKSRNGCTTCKQRRVKCDEGKPVWPSAARTAGADRSS”: the “transcriptional activation domain activity” value worked out at 50600.
With “MAPWDDAPAPFAADGDADDVTGSELAERFNKESGKVNAQLSAFPSALLCGRDK”, the “transcriptional activation domain activity” value was 61900.
Regarding “MAQTTPESASSSQSTLARGKACLRCRKRKMRCDGAKPACGQCVKAHKPDACQY”, the “transcriptional activation domain activity” value was found to be 24400.
With “MAQVAVFLVHKVLYGIIPLFEIQTCAYFPLLVSLWHLNYMLFYVVMFMRLIIL” the figure was 45300; with “MAQVAVFVVHKFLYGIIPLFEISTCAYFPLLVSLWHLNYLLFYAVMFMRLIIL”, 75000.
Take “MARAKPTRIVESDEDDSDSGQLSSAPAKRKAGSEDANPAAKRARTASAKQKQL”: the “transcriptional activation domain activity” value is 63000.
For the sequence “MARCYRLVMCFPFSLCFEYSALILTCSFFSPFIPFRLWCHAVPCGSGVFLFLH”, the “transcriptional activation domain activity” value was determined as 65700.
Under “MARLHIGQLCSRSFFYALLVLSTWSSKLVYLWPHLTSSLPPLLIVLYIPTFLL” stands 72900; under “MARLLFIPIFVNLSFPHHKSYFFLTSMLTLLLQLYLLLSLCWLILLLPCLKDS”, 40400.
With “MARNIYVIYIPKSICCSLPLSVPLSLLPLPSLPLFPSLTSTLLFFVLFHFFLL” the figure was 49600.
For the sequence “MARQLYSPFFIFLYLPSCIYKNILFSSFLFFLTSLIGIFLHPFFNIVCFICQM”, the “transcriptional activation domain activity” value was determined as 58500.
As to “MARQPSAPNAASDRGAATTTPRKPTTRSRTGCSACRKRRTKCDEARPACGHCV”, the “transcriptional activation domain activity” value was found to be 44600.
As to “MASALLDFPYLHLGIPSFLRVNLFLNIHVHFFFVHFCLSPSVRFIFFYFFLYL”, the “transcriptional activation domain activity” value was 50300.
On to “MASASLASKQSIRPHRKSRTGCSTCKRRKVKSLAVVGAGLGRSGQVTAGSPTG”, for which the “transcriptional activation domain activity” value is 54100.
Under “MASEQVEEVTKKVADVAIEAPAAAPAKAPKAPKAPKAKKAKKEAAEGSSPLEL” stands 13700; under “MASGILGLLVVNFVLLLICFIAYSSQIFVIWPWYGRTVSVELISLLLPFNILV”, 42800.
Regarding “MASKDPVYDEKTGAPKLVAESDSSNVETGGGTPERTLHRQLKNRHIAMISIGG”, the “transcriptional activation domain activity” value amounted to 44900.
Under “MASLRNHAEQLNAAVYRNYKKDRKVGEGAYAVVYLGTQLSTKKVVAIKKIKVG” stands 49800; under “MASPASSTEQQRAAKRKSHRKSRNGCFQCKQRHSKVSQSSTLLAAAASNLSRT”, 27100.
As to “MASQATTLRGYNIRKRDNVFEPKSSENLNSLNQSEEEGHIGRWPPLGYEAVSA”, the “transcriptional activation domain activity” value came out at 50300.
Under “MASSTPRVRSLYRRLLRELPTHPSATPNTTTAASRTTPSKYRSTAHQKLSAPS” stands 31700; under “MASSTSPSPSTTSIKSEVAPGRTVACLRCRGRRQFCSKERPQCKKCRDARAEC”, 28800.
“MASVVCCTELWCLFGLDVCFFPFSLFALPLVLSPSLFPLSSLSFIIFLFFPVS”: the “transcriptional activation domain activity” value was 54700.
With “MATAEPTKKRGRPKKVVLVEESAGNAEAVVAEVVKKTTTKKTSTKAPAAPVTT”, the “transcriptional activation domain activity” value turned out to be 40300.
“MATDATVNAPASAEATTARRRRSHQKSRLGCRNCKLRRVKCDERRPRCVKCRE”: the “transcriptional activation domain activity” value was found to be 35500.
On to “MATFLSCLRPFVCSFFLFSFLFRPWPWVYIHVGFGGNSCSTFDFLSIFFVTFF”, for which the “transcriptional activation domain activity” value was found to be 43300.
For “MATLDEALDNEGGKRRRSHKKSRRGCGDCRRRRVKCSEENPRCQACVRRGVQC”, the “transcriptional activation domain activity” value turned out to be 67400.
Turning to “MATLDVFLRVYCFTLSFLLFLFLIIIFILAYSAFAVDFFFLFVYSSTIELCFI”, the “transcriptional activation domain activity” value is 36200.
As for “MATLLGGFWFLVLCSIMLSALLTPLILLTGSLILLSFGSFPSLPHWLLIIIVH”, the “transcriptional activation domain activity” value was 62400.
With “MATPSTGAPPPKQIRFVNNQGQPPSKRRRVNAACLTCRKRKTRCDGEKPTCST”, the “transcriptional activation domain activity” value is 20200.
With “MATRHVSAANNANKPRACLTCRTSKHKCDGNDRSTAPCSRCLRTGKSCIWPAK”, the “transcriptional activation domain activity” value was determined as 33800.
Regarding “MATVISGVCFFFFFFFFCFLLCLVMAFLLLFSFLFLCDLLLRLLLLSPSFDSL”, the “transcriptional activation domain activity” value is 31200.
For the sequence “MAVETVGLGWRTLRSLIIEFILFYCLFTALGYNSLSLLNYRPWIFFSFLFCLF”, the “transcriptional activation domain activity” value was 57500.
“MAVIWGLDLKDMQWSKFKGSYMFNNVYHLRKVKMIVYQIAMILCVVSESVGTA”: the “transcriptional activation domain activity” value amounted to 66800.
For the sequence “MAVNDGFLFVFSCLFFLIFVTLLLTFPFLFFGSSHFHMGNPPVFPLLILISCY”, the “transcriptional activation domain activity” value was 47200.
For the sequence “MAVSIWDFVLCIFPHLHFLCLWIVFLSLFMFSYCFKFRFTPVLLTISLPRCFF”, the “transcriptional activation domain activity” value stood at 51200.
As for “MAWAIQGRLFSFNCSCSHFIFWPLFFFFSLPWRAWSSIGNNSRFSRLFFFFFL”, the “transcriptional activation domain activity” value is 60900.
With “MAWAYGSCLCRCCFFFASLWQFLFFVFGFLPFWPFFGFLLFISVVLPPSSLFL” the figure was 46100; with “MAWHFVWQDIPLMGTMHQISYLLNNFIYCFPIAHVHLQVCFFSSLLLIHFYTF”, 68200; with “MAYLFLYFTIFFIFFFIAGDGGDDCEIFFLFFFFSFKALFTPFFYLYLYWTSA”, 25400.
Consider “MCAASSEGASLSPASSLQRGKACLACRRRKMRCDGARPTCGQCVRGNRVDDCE”, for which the “transcriptional activation domain activity” value was 21200.
For “MCACRLFNQICFINKPCRIVNLSISIVYINWGMLLCVMRSDVLSLYLLIMLPV”, the “transcriptional activation domain activity” value came out at 80000.
Under “MCARSLFCGYIFFLVLYLLAWLGVFPCPFTLFLLSFLFPIFFFLLCWRLAFAC” stands 45800; under “MCASVILFCLVFSSSYLLAIFKDCYLALLYYMQCWSMYYLFSDFVCHYPISKG”, 72200; under “MCCAECCLSSLVSFVSFFSRSLHSLTIRGFFLFPGTFHVILFLFFRFFIFFFH”, 47400.
With “MCCEAEWKREVVQDHKFDFINVSEFHRTDILTRLKYVWKYILILKAFAVMGLD” the figure was 53700; with “MCCLLLFSPSFLCFFFAFFFYFTFYMTHLSDFSFLQRAIGLTYVFIWLIYRAH”, 38100; with “MCCLLVVLVALSGVGDFFFFSLLLLLLLLERGGVFFLFWLFFFYLFILFFHRG”, 57000.
Under “MCCLVLSLALLGRHGGMNIFFLCFYVGSFVFIFLRVLVVRLLLLLLLCYYQAL” stands 70200; under “MCDLFYTHLISPLFPNMPFWVFFCRLFLLFSLLQCSFICGPFVAVLSYCWLSF”, 54600; under “MCEGDFCVFFCVCVCVCVCLCVLFCFLFWFLFWWLLFFFLVMLFLAVGVFVYI”, 35400.
Regarding “MCEQHTCLFVLLSVKLLLWRLLFFVESSFLDGMELVLTGRWWAYYIYLWCLTV”, the “transcriptional activation domain activity” value amounted to 54400.
For the sequence “MCFEFHPFSTSMFYLLSILFLDLSFWLSFYFFMSIVHSVALEFLFVFSLNFFV”, the “transcriptional activation domain activity” value amounted to 42600.
“MCFFSFFLFLLRIWLLFCLLLSIPLGFRMRSWGVPTAFVTILHFSLVMHLITV”: the “transcriptional activation domain activity” value worked out at 59900.

The record behind these values is the supplement of paper PMC12636428.
